Values joined by “and” are separate entries in the source; they are usually repeats but may differ in a detail not shown here. Equal entries are not always repeated.

Assay [1] has as its target TLR-6. Nature of the assay: microplate binding assay, complex adsorbed in wells, biotin-streptavidin visualisation.
For assay [2], the target named is galectin-1. The assay is described as above. Conditions: scale: µg of macromolecular complex per 10 ng of galectin-1.

Take “macromolecular complex of Bifidobacterium longum CBi0703 (CNCM I-3994), prepared according to example 1 (fermentation with pH regulated)”: in assay [1], the concentration at saturation (µg of macromolecule per 10 ng of TLR6) is 10 and 20. Further, in assay [2], the concentration at saturation was 20 and 10.
Consider “macromolecular complex of Bifidobacterium longum CBi0703 (CNCM I-3994), prepared according to example 2 (fermentation with pH not regulated)”, for which the concentration at saturation (µg of macromolecule per 10 ng of TLR6) in assay [1] is 10 and 20. The concentration at saturation in assay [2] is 10 and 20.

Values taken from patent publication US20130130988A1.
